From PMC8618851, “The RNA Directed DNA Methylation (RdDM) Pathway Regulates Anthocyanin Biosynthesis in Crabapple (Malus cv. spp.) Leaves by Methylating the McCOP1 Promoter”

Target: McDRM2 (Malus cv. spp. (crabapple), UniProt UPI0010AA5BBA 1-600)
Test: EMSA; 10x binding buffer, MgCl2, NP-40; 2 uL 10x binding buffer, 1 uL 50% glycerol, 1 uL 100 mM MgCl2, 1 uL 1% NP-40, 2 ug protein, 2 uL 0.1 uM biotin oligo; 25 C, 20 min; 12% native PAGE; pH and salt not given
Details: protein: recombinant; tags: MBP (pMAL-C2X); label: 3' biotin

Sequence of McDRM2 (chain, as listed by the source): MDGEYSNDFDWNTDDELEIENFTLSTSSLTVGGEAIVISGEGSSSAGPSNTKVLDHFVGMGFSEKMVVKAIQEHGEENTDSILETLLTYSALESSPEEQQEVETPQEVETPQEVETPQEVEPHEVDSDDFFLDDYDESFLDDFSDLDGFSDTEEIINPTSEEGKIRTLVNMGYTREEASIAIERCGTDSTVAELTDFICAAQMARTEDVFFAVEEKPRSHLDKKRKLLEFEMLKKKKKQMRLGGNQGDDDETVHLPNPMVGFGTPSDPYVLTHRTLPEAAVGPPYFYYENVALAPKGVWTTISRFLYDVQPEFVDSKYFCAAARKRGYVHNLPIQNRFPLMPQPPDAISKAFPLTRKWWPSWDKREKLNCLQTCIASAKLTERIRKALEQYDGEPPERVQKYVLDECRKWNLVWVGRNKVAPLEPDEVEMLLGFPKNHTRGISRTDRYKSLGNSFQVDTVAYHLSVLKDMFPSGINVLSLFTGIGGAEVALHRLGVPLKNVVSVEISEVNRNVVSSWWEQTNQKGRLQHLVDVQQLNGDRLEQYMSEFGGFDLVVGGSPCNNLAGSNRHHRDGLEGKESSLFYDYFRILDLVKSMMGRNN

B1: McCOP1 promoter SINE-site probe (dsDNA)
DNA 1: TTCAACGTATTAACTTTATCGGTTCGGTGGACAATTCC
DNA 2: GGAATTGTCCACCGAACCGATAAAGTTAATACGTTGAA
**Q.** Does B1 bind?
**A.** no binding
